Assay results taken from patent US20200255501A1 (VIB VZW, published 2020).
Positions count from the first letter of the chain named.

B1: anti-Sap Nanobody683 (VHH)
VHH: QVQLVESGGGLVQAGGSLRLSCAASGSIFRINDMGWYRQAPGKQRELVAAITSGGSTNYADSVKGRFTISRDNAKKMVYLQMNSLKPEDTAVYYCHADFSTGWAPYDYWGQGTQVTVSS
B2: anti-Sap Nanobody688 (VHH)
VHH: QVQLVESGGGLVRAGGSLRLSCAASGSIFRINDMGWYRQAPGKQRELVAAITSGGSTNYADSVKGRFTISRDNAKNTVYLQMNSLKPEDTAVYYCNADFSTVRERRYDYWGQGTQVTVSS
B3: anti-Sap Nanobody707 (VHH)
VHH: B1 VHH with D33A, P41S, S56N, K76N, M77T, H96N, S100G, W103G, A104R
B4: anti-Sap Nanobody702 (VHH)
VHH: QVQLVESGGGLVQAGGSLRLSCAASGSIFRVNDMGWYRQAPGKQRELVAIIITGGSTNYADSVKGRFTISRDNAKNTVYLQMNSLRPEDTAVYYCNADFGTGPGRYDYWGQGTQVTVSS
B5: anti-Sap Nanobody704 (VHH)
VHH: QVQLVESGGGLVQPGGSLRLSCAASGFTFSNFAIAWVRQAPGKGLEWVSDINSGGTDTSYAAAVKGRFTISRDNAKNTLYLQMNNLKPEDTAVYYCAKSAQSYFHSTFDHRGQGTQVTVSS

Each binder was assayed against T1, B. anthracis Sap S-Layer assembly domain (Sap^AD; residues 216-814), C-terminal His6 (Bacillus anthracis, UniProt P49051 216-814) (assay: ITC, Nb titrated into fresh monomeric Sapc, 30 °C).
Binder B1 has a Kd of 35 nM. B2 showed a Kd of 120 nM.

The binders below were run against T1, B. anthracis Sap S-Layer assembly … (assay: isothermal titration calorimetry, […]).
Work on B3 yielded a Kd of 103 nM. Work on B1 yielded a Kd of 35.8 nM. B4 showed a Kd of 72.5 nM. B5 was tested, and the Kd was 183 nM.
